Here are results for one molecule from article PMC11087256, “Interferon-induced transmembrane protein-1 competitively blocks Ephrin receptor A2-mediated Epstein–Barr virus entry into epithelial cells” (Nature Microbiology, 2024).

The EC50 is the concentration giving half of the maximal effect. Read a low EC50 as a more potent agent.

Values joined by “and” are separate entries in the source; they are usually repeats but may differ in a detail not shown here. Equal values may be shown once.

The target of experiment [1] is T1, GST-EphA2 (UniProt P29317 24-976).
T1 construct: EphA2; The methods name both pGEX6p-1-GST/His and pET28a as the vector; also called glutathione S-transferase (GST)-EphA2
The experiment can be described thus: ELISA; as the ELISA on GST-EphA2-coated plates, gH/gL or gB incubated in the presence of IFITM1 (concentration of IFITM1 not stated). To be noted: both partners purified.

Experiment [2] concerns the target T1, GST-EphA2. Kind of experiment: ELISA; 200 ng GST-EphA2 coated on 96-well plates overnight at 4 °C, blocked with 5% BSA in PBS; gradient concentrations of 6×His proteins, 2 h at room temperature; anti-His or anti-GST antibody, HRP secondary, absorbance at 450 nm. As to conditions: both partners purified. On the technique in general: An ELISA detects its analyte on a solid surface through an enzyme-linked reagent.

B1: 6×His-gB (natural protein)
chain: AQTPEQPAPPATTVQPTATRQQTSFPFRVCELSSHGDLFRFSSDIQCPSFGTRENHTEGLLMVFKDNIIPYSFKVRSYTKIVTNILIYNGWYADSVTNRHEEKFSVDSYETDQMDTIYQCYNAVKMTKDGLTRVYVDRDGVNITVNLKPTGGLANGVRRYASQTELYDAPGWLIWTYRTRTTVNCLITDMMAKSNSPFDFFVTTTGQTVEMSPFYDGKNKETFHERADSFHVRTNYKIVDYDNRGTNPQGERRAFLDKGTYTLSWKLENRTAYCPLQHWQTFDSTIATETGKSIHFVTDEGTSSFVTNTTVGIELPDAFKCIEEQVNKTMHEKYEAVQDRYTKGQEAITYFITSGGLLLAWLPLTPRSLATVKNLTELTTPTSSPPSSPSPPAPSAARGSTPAAVLRRRRRDAGNATTPVPPTAPGKSLGTLNNPATVQIQFAYDSLRRQINRMLGDLARAWCLEQKRQNMVLRELTKINPTTVMSSIYGKAVAAKRLGDVISVSQCVPVNQATVTLRKSMRVPGSETMCYSRPLVSFSFINDTKTYEGQLGTDNEIFLTKKMTEVCQATSQYYFQSGNEIHVYNDYHHFKTIELDGIATLQTFISLNTSLIENIDFASLELYSRDEQRASNVFDLEGIFREYNFQAQNIAGLRKDLDNAVSNGRNQFVDGLGELMDSLGSVGQSITNLVSTVGGLFSSLVSGFISFFKNPFGGMLILVLVAGVVILVISLTRRTRQMSQQPVQMLYPGIDELAQQHASGEGPGINPISKTELQAIMLALHEQNQEQKRAAQRAAGPSVASRALQAARDRFPGLRRRRYHDPETAAALLGEAETEF
Regarding B1, the “EC50 with IFITM1” value with GST-EphA2 [1] was 84.3 nM. In the experiment with GST-EphA2 [2], the EC50 is 41.7 nM and 39.6 nM.
